“And” between values parts separate entries of the source, which are not always exact repeats. Equal entries are not always repeated.
Tests used:
[1] = format: biochemical, microflora of Ac1göl (Aci Lake)
Description: (§1) 6. Standard activity test: Activity has been measured based on the pNP measurement that is obtained by the hydrolysis of the paranitfrophenol (pNP) esters by the enzyme (Winkler and Stuckmann, 1979). The final concentration of the enzyme and substrate have been 1 μM and 1 mM respectively and absorbance measurements have been taken at 410 nm. The activity has been calculated by means of the below formula and one unit of activity has been defined as the enzyme amount which produces 1 μmol product in 1 minute.
(§2) Activity (U/L)=[(ΔAbs/t)/(ε*d)]*106*Vt/Vs • ΔAbs=Absorbance change; t=time (minute); ε=extinction coefficient (M−1 cm−1); d=light path (cm); Vt=total reaction volume; Vs=enzyme volume used in reaction.
(§3) The reaction has been carried out under different temperatures (5° C.-70° C.) in order to determine the optimum temperature in which the enzyme works efficiently, and the activity has been measured. In order to determine the thermal stability of the enzyme, the enzyme has been incubated for 20 minutes between 25° C.-80° C. temperature and the remaining activity has been measured according to standard tests.

[2] = Effect of pH on enzyme activity; format: biochemical, microflora of Ac1göl (Aci Lake)
Description: as §1, §2
(§4) 8. Measuring the activity and stability of the enzyme under different conditions: Reactions have been carried out in buffer solutions (50 mM citrate/phosphate buffer, pH 6; 50 mM Tris-HCl buffer, pH 7, 8 and 8.5; 50 mM glycine-NaOH buffer, pH 9, 9.5 and 10) having different pH values in order to determine the optimum pH value in which the enzyme works. Moreover, in order to measure the pH stability of the enzyme, the enzyme has been incubated for 24 hours before reaction in these buffer solutions and the activity value remaining at the end of the incubation has been calculated.

[3] = Effect of temperature on enzyme activity (standard pNP ester activity test); format: biochemical, microflora of Ac1göl (Aci Lake)
Description: as §1, §2, §3

[4] = format: biochemical, microflora of Ac1göl (Aci Lake); remark: listed apart in the source
Description: as §1, §2, §4

B1: enzyme: novel esterase (SEQ ID NO: 2, 260 amino acids) obtained by metagenomic method from the microflora of Ac1göl (protein)
chain: MTVDLNHLDTGGEGIPLVVIHGLLGSADNWRSHVKQWQQQCRVVAVDLRNHGRSPHADGMSYAAMAADLEALLDRLGIERAHLLGHSMGGKVAISVARLHPQRVASLIVADIAPQAYGHDHDAVFAGLRRVEQGQPGNRREADALLAEHVEERAVRLFLATNLERDDDGILRLRIGLDEIEGDYDAIMQAPAGEGSYDGPVLVLRGDRSPYVTDAMLPRLHQVLPQAQLVTLENAGHWLHAEQPEAFQAAVNDFLASLEA
modifications: Metagenomic Sequence
**Q.** Which “temperature up to which the enzyme maintained the stability” value [1] does the source give for B1 here?
**A.** The value was “up to 55 °C”.

**Q.** And the “pH value at which the enzyme worked best” value [2]?
**A.** The value was 9 pH.

**Q.** And the “The effect of pH on activity, Activity (%)” value (shortened to “The effect of pH … (%)”) ([2]; pH 6)?
**A.** Its value is 10.3 ± 4.1%.

**Q.** What about the “The effect of pH … (%)” value ([2]; pH 7) of the same molecule?
**A.** Its value is 68.8 ± 8.2%.

**Q.** What about the “The effect of pH … (%)” value ([2]; pH 8) of the same molecule?
**A.** Its value is 77.1 ± 6.8%.

**Q.** What about the “The effect of pH … (%)” value ([2]; pH 8.5) of the same molecule?
**A.** Its value is 84 ± 5.2%.

**Q.** What about the “The effect of pH … (%)” value ([2]; pH 9) of the same molecule?
**A.** Its value is 100 ± 1.3%.

**Q.** And the “The effect of pH … (%)” value ([2]; pH 9.5)?
**A.** Its value is 84.9 ± 1.5%.

**Q.** And the “The effect of pH … (%)” value ([2]; pH 10)?
**A.** Its value is 20 ± 8.1%.

**Q.** And the “temperature of best activity” value [3]?
**A.** The value was 30 °C.

**Q.** And the “Effect of temperature on activity, Activity (%)” value (“Effect of temperature … (%)” below) ([3]; reaction at 5 ° C.)?
**A.** The value was 47% and 46.6 ± 6.1%.

**Q.** What about the “Effect of temperature … (%)” value ([3]; reaction at 10 ° C.) of the same molecule?
**A.** The value was 53.8 ± 7.4%.

**Q.** What about the “Effect of temperature … (%)” value ([3]; reaction at 15 ° C.) of the same molecule?
**A.** The value was 63% and 63.1 ± 5.1%.

**Q.** What about the “Effect of temperature … (%)” value ([3]; reaction at 20 ° C.) of the same molecule?
**A.** Its value is 76.9 ± 4.4%.

**Q.** And the “Effect of temperature … (%)” value ([3]; reaction at 25 ° C.)?
**A.** The value was 93.1 ± 6.3%.

**Q.** What about the “Effect of temperature … (%)” value ([3]; reaction at 30 ° C.) of the same molecule?
**A.** Its value is 100 ± 4.8%.

**Q.** And the “Effect of temperature … (%)” value ([3]; reaction at 35 ° C.)?
**A.** The value was 94.4 ± 1.5%.

**Q.** What about the “Effect of temperature … (%)” value ([3]; reaction at 40 ° C.) of the same molecule?
**A.** Its value is 82.4 ± 2.8%.

**Q.** And the “Effect of temperature … (%)” value ([3]; reaction at 45 ° C.)?
**A.** Its value is 22.5 ± 0.8%.

**Q.** What about the “Effect of temperature … (%)” value ([3]; reaction at 50 ° C.) of the same molecule?
**A.** The value was 17.7 ± 0.3%.

**Q.** What about the “Effect of temperature … (%)” value ([3]; reaction at 55 ° C.) of the same molecule?
**A.** Its value is 14.4 ± 4.5%.

**Q.** And the “Effect of temperature … (%)” value ([3]; reaction at 60 ° C.)?
**A.** Its value is 12.9 ± 2.9%.

**Q.** What about the “Effect of temperature … (%)” value ([3]; reaction at 65 ° C.) of the same molecule?
**A.** The value was 11.1 ± 4.2%.

**Q.** And the “Effect of temperature … (%)” value ([3]; reaction at 70 ° C.)?
**A.** Its value is 8.2 ± 0.8%.

**Q.** What about the “pH up to which the enzyme maintained its stability” value [4] of the same molecule?
**A.** The value was at most 10 pH.

Reference: patent US20210309978A1, “POLYNUCLEOTIDE SEQUENCE ENCODING A LOCAL SOURCED NOVEL ESTERASE” (ISTANBUL TEKNIK UNIVERSITESI, priority 2018, published 2021)
